From patent publication US20250320288A1, “METHOD OF TREATING VITILIGO WITH INTERFERON-GAMMA ANTIBODY” (Elixiron Immunotherapeutics (Hong Kong), priority 2022, published 2025)
“Also recorded” adds a separate entry of the source.

How the values were obtained:
SLC7A11 = assay: Ferroptosis regulators in melanocytes (RNA sequencing, SLC7A11 immunoblot); assay type: cell-based, human; conditions: melanocytes
Source text: (§1) Total RNA was extracted from melanocytes with an RNA purification kit (Zymo Research, r2050). After RNA samples were extracted from primary melanocytes and melanocytes cell line (Gibco), the samples were sent to Biotools Co., Ltd Taiwan for RNA sequence. The RNA quality was examined by Agilent Technologies 2100 Bio-analyzer with an RNA integrity value greater than 8. After rRNA depletion (Epicenter), RNA fragmentation, and library preparation (Illumina), the constructed libraries were then performed 150 bp paired-end sequencing by an Illumina NovaSeq6000 sequencer. The results from each sample were aligned to the GRCh38 genome by the HISAT2 software and analyzed by Biotools Co., Ltd Taiwan.
(§2) Cells were washed in PBS and lysed in RIPA lysis buffer with proteases inhibitor and Phenylmethanesulfonyl fluoride (PMSF; Sigma-Aldrich, P7626). The total cell lysates were sonicated and centrifuged at 4° C., 13000 rpm for 30 min. Protein concentration was quantified using the Bradford assay. The total cell lysates were separated by SDS-PAGE and transferred to a PVDF membrane. The membrane was blocked with 5% BSA or 5% milk in TBST for 1 hour at room temperature and incubated with primary antibodies overnight at 4° C. and HRP-conjugated secondary antibodies for hour at room temperature. The protein was visualized by Thermo ibright1500. Primary antibodies were follows: anti-human SLC7A11 (CST, 12691), anti-human SLC3A2 (CST, 13180), anti-IRF1 (CST, 8478), anti-MITF (CST, 12590), and anti-GAPDH (Abcam, ab8245).

[1] = 4-week repeated intravenous infusion GLP toxicology of EI-001; assay type: in vivo
Method: Materials and methods: A total of forty Cynomolgus monkeys (20 females and 20 males) were assigned into 4 groups with 5 animals/gender/group and given EI-001 (2A6Q) (10, 30 and 100 mg/kg) or vehicle (Formulation Buffer) in a volume of 10 mL/kg via 30-min intravenous infusion, once weekly for a total of 5 doses, followed by a 6-week recovery phase. All animals were scheduled to be necropsied at the end of main phase (on Day 30) and at the end of recovery phase (on Day 72). During the study, the following parameters were evaluated: clinical observations, ophthalmology, body weight, food consumption, body temperature (rectal temperature), clinical pathology (hematology, coagulation, plasma chemistry, lymphocyte immunophenotype and urinalysis), gross pathology, organ weight and histopathology. toxicokinetics, immunogenicity, local irritation assessment, cardiovascular (ECG, body surface temperature, blood pressure), respiratory and central nervous system safety pharmacology assessments were conducted concurrently. […] The immunogenicity samples were collected on pre-dose on Days 1, 15, 22, and Days 57, 71.

[2] = tested on: CXCR3 expression on CD4+ T cells; assay: CXCR3 expression on CD4+ T cells of activated PBMCs (flow cytometry); assay type: cell-based, human; conditions: 3 individual donors
Method: (§3) Materials and methods: PBMCs from healthy adult donors were isolated from whole blood using Ficoll-Paque density gradient centrifugation. PBMCs were cultured in a humidified 37° C. incubator for 24 hours in RPMI-1640 culture medium supplemented with 5% human serum, and standard antibiotics, 2-ME and HEPES. PBMCs were then seeded at 1×10^6 cells/well with 1 mL fresh culture medium/well in a 24-well plate and stimulated by mixing cells with human T cell TransAct (1:200). Antibodies indicated in the Results were then added and mixed well. After 2 days of culture, PBMCs were collected, washed with PBS three times, re-suspended in culture medium and re-cultured with indicated antibodies for an additional 2 days.
(§4) PBMCs were treated as required (see above) and then harvested for flow cytometry antibody staining, using anti-human CD4, anti-human CD8, anti-human CD56 and anti-human CXCR3 antibodies for 30 minutes on ice in the dark. PBMCs were then washed twice with FACS buffer and the expression of CXCR3 determined by flow cytometry using an Attune NxT flow cytometry. Flow cytometry data analysis was performed using FlowJo software.

[3] = tested on: CXCR3 expression on CD8+ T cells; assay: CXCR3 expression on CD8+ T cells of activated PBMCs (flow cytometry); assay type: cell-based, human; conditions: 3 individual donors
Method: as §3, §4

MITF = assay: Melanin regulators in melanocytes (RNA sequencing, MITF immunoblot); assay type: cell-based, human; conditions: melanocytes
Source text: as §1, §2

primary melanocytes = assay: Melanocyte cell viability after IFN-γ, chemokines, cell death inhibitors or 2A6Q, Day 2 and Day 7; assay type: cell-based, human; conditions: melanocytes with IFN-γ, up to seven days; listed as 2A6Q
Method: To determine cell viability of melanocyte after treatment with IFN-γ, CXCL9, CXCL10, CXCL11, at Day 2, and Day 7, the cells were collected and seeded into 96-well plates. After adhesion, cells were treated with IFN-γ (0, 10, 100 ng/ml) with different compounds: 2A6Q, CXCL9, CXCL10, CXCL11, ROS scavenger (NAC), necroptosis inhibitor (NEC-1), pyroptosis inhibitor (VX-765), apoptosis inhibitor (QVD-OPH), Ferroptosis inhibitor (Liproxstaitin-1, Ferrostatin-1, DFO). Cell viability was measured using a CellTiter-Glo luminescent cell viability assay kit (Promega) according to the manufacturer's protocol. The […] of the final reaction product was measured using a luminometer (SpectraMax® iD3 Multi-Mode Microplate Reader (Molecular Devices). After calculation, the viability of control cells was 100%, and all others were normalized to control and shown as relative cell viability (%). Treatment dosage N-acetylcysteine (NAC; 0.05 mM, 1 mM), Necrostatin-1 (NEC-1; 20 μM, 2 μM), Belnacasan (VX-765; 50 μg/mL, 5 μg/mL), Quinoline-Val Asp-Difluorophenoxymethylketone (QVD-OPH; 10 μM, 2 μM), Liproxstaitin-1 (10 μM, 5 μM, 1 μM, 0.05 μM), Ferrostatin-1 (5 μM, 1 μM), Deferoxamine (DFO; 10 μM, […], 1 μM, 0.05 μM), 2A6Q (10 μg/mL), CXCL9 (10 ng/mL, 10 pg/mL), CXCL10 (10 ng/ml, 10 pg/mL), CXCL11(10 ng/mL, 10 pg/mL).

melanocytes = assay: Melanocyte apoptosis, Annexin V / 7AAD flow cytometry; assay type: cell-based, human; conditions: 2A6Q 10 μg/mL
Method: Materials and methods: Melanocyte cell apoptosis was detected with Annexin V (BD, 550474) and 7AAD (1 mg/mL, Sigma A9400-1 MG). The cells were detached and resuspended with […] binding buffer (BD, 556454) containing Annexin V and 7AAD for 15 min at room temperature in the dark. Before analysis, cells were added to a […] binding buffer and immediately analyzed a on a flow cytometer (Verse BD).

B1: EI-001: human monoclonal anti-IFN-γ neutralizing antibody; VH SEQ ID NO: 165, VL SEQ ID NO: 113; N76Q removes VH glycosylation site (antibody, listed as Homo sapiens, V domains shown)
VH: EVQLVESGGGLVKPGDSLTVSCVASGFTFSNYFIHWVRQAPGKGLEWVATISGRTKYMFYSDSLRGRFTVSRDNAQNSVYLHMSSLRGEDTALYYCVRGYDHSDSNSAADLLHWGRGTLVTVSS
VL: NFMLTQPLSVSGYPGKTIVISCVRSSGSVASHYVQWFQQRPGSAPAMVIYEDSHRPSGIPDRFSGSVDASSNSASLTISGLKTEDEADYFCQSYYGNNQVLFGGGTKLTVL
modifications: Recombinant variant antibody sequence
notes: human monoclonal anti-IFN-γ neutralizing antibody; N76Q removes VH glycosylation site
reversal of ferroptosis as demonstrated by SLC7A11 (SLC7A11): reverses ferroptosis | survival of treated animals ([1]; 10, 30 and 100 mg/kg once weekly): survived to their scheduled necropsy | tolerability after repeated intravenous infusion for 4 weeks ([1]; 10, 30 and 100 mg/kg once weekly, 5 doses): well-tolerated | mortality rates or susceptibility to infections among the treated monkeys ([1]; compared to prior NI-0501 toxicology studies): did not increase | drug adverse events in in vivo toxicology ([1]; cynomolgus monkey, in vivo): does not cause any significant drug adverse events | observable symptoms of infection ([1]; cynomolgus monkey, in vivo): did not induce | only detected changes related to administration ([1]; cynomolgus monkey, in vivo): seen on a microscopic level | IC50 of EI-001 to inhibit CXCR3 expression on CD4+ T cells [2]: 0.279 to 1.313 µg/mL | IC50 of EI-001 to inhibit CXCR3 expression on CD8+ T cells [3]: 1.029 to 6.941 µg/mL | reversal of IFN-γ induced downregulation of MITF (MITF): reverses | rescue of IFN-γ induced melanocyte cell death (cell viability) (primary melanocytes): more profound than all other cell death inhibitors; also recorded: rescue cell viability of melanocyte in a time-dependent manner | reversal of IFN-γ induced early phase apoptosis (melanocytes): managed to reverse the apoptosis; also recorded: reverses
